# Measurements published in patent publication US20260116960A1 (SHANGHAI HONGCHENG BIOPHARMACEUTICAL, published 2026).
# Experiments:
# [1] = target: T1, Biotinylated Human VEGF165 (Acro, Catalog No. VE5-H82Q0) (human, UniProt P15692-4 27-191, biotinylated (site not stated)); assay: flow cytometry: antibody titrated on 293T-hPD-1 cells, then mixture of biotin-hVEGF165 and hCTLA4-mFc; PE streptavidin signal; VEGF signal after binding to cell surface PD-1
# T1 construct: Bought protein; also called Biotinylated-hVEGF165; Biotin-hVEGF165
# Procedure: (§1) 200 μL/well of the cells were added to a 96-well U-bottom plate. After centrifugation at 300 g for 5 minutes, the supernatant was discarded and 100 μL of antibody solution serially diluted with FACS buffer was added to each well in triplicate (with starting concentration of 200 nM, 3-fold serial dilution, and the same volume of FACS buffer was used as a negative control). Mixed well and incubated at 4° C. for 60 min. After washing the plate three times with FACS buffer, a mixture consisting of 1 μg/mL Biotin-hVEGF165 and 1 μg/mL hCTLA4-mFc (DIMA BIOTECH, Catalog No.: PME100017) in a 1:1 volume ratio was added to each well at 100 μL/well to detect the simultaneously binding activity of the trispecific antibodies to CTLA-4 and VEGF after binding to cell surface PD-1. […] After washing the plate three times with FACS buffer, 100 μL/well of PBS solution was added to resuspend the cells, and the fluorescence signal was detected on a flow cytometer (BECKMAN COULTER cytoFLEX). The binding activity was fitted using a four-parameter model, and the EC₅₀ value of each antibody was calculated.
# [2] = target: T2, hCTLA4-mFc (DIMA BIOTECH, Catalog No. PME100017) (human, UniProt P16410 36-161, limits assumed); assay: flow cytometry: antibody titrated on 293T-hPD-1 cells, then mixture of biotin-hVEGF165 and hCTLA4-mFc; AF647 anti-mIgG signal; CTLA-4 signal after binding to cell surface PD-1
# T2 construct: Bought protein; also called human CTLA-4 mouse Fc fusion; not shown: mouse Fc (mFc)
# Procedure: as §1
# [3] = target: T3, human CTLA-4 on the cell surface (human, UniProt P16410 36-223); assay: flow cytometry, CHO-hCTLA-4 cells, batch FACS#4
# T3 construct: whole, on cells; also called CHO-hCTLA-4 cells; CHOK1-hCTLA4 cells
# [4] = target: T4, human PD-1 on the cell surface (human, UniProt Q15116 25-288); assay: flow cytometry, 293T-hPD-1 cells, batch FACS#2
# T4 construct: whole, on cells; also called cell surface PD-1
# Procedure: After centrifugation at 300 g for 5 minutes, the supernatant was discarded. The antibodies were serially diluted 3-fold with FACS buffer to obtain two gradient series solution FACS #1 and FACS #2, with the starting concentration of 200 nM (Table 5, FACS #1) or 100 nM (Table 5, FACS #2, FIG. 2), respectively. Then 100 μL/well was added to a 96-well plate in triplicate, mixed, and incubated at 4° C. for 60 min. The plate was centrifuged and washed three times with FACS buffer. 100 μL/well of 1:800 diluted AF647-anti-hIgG(H+L) (Jackson, Catalog No.: 109-605-003) was added and incubated at 4° C. for 50 minutes. After washing the plate three times with FACS buffer, 100 μL/well of FACS buffer was added to resuspend the cells, and the fluorescence signal was detected on a flow cytometer (BECKMAN COULTER cytoFLEX). The binding activity was fitted using a four-parameter model to calculate the EC₅₀ value of each antibody binding to PD-1.
# [5] = target: T5, human VEGF165-his protein (Acro, Catalog No. VE5-H5248) (human, UniProt P15692-4 27-191); assay: competitive ELISA, VEGF165-His coated, biotin-human KDR
# T5 construct: Bought protein; also called hVEGF165-His; VEGFA; not shown: his tag
# [6] = target: T3, human CTLA-4 on the cell surface; assay: flow cytometry competition, CHO-hCTLA-4 cells, biotin-human CD80
# Procedure: CHO-hCTLA-4 cells were obtained by trypsin digestion, washed twice with PBS containing 2% FBS (FACS buffer), and resuspended in FACS buffer. 200 μL of the cells were added to a 96-well U-bottom plate, approximately 2×10⁵ cells/well. After centrifugation at 300 g for 5 minutes, the supernatant was discarded. […] After washing three times with FACS buffer, 100 μL/well of 1:800 diluted PE Streptavidin was added and incubated at 4° C. for 50 min. After washing three times with FACS buffer, 150 μL/well of PBS was added to resuspend the cells, and the fluorescence signal was detected on a flow cytometer (BECKMAN COULTER cytoFLEX). The four-parameter model was used to fit the binding activity and the IC₅₀ value of the blocking activity of each antibody was calculated.
# T3 sequence (P16410 36-223): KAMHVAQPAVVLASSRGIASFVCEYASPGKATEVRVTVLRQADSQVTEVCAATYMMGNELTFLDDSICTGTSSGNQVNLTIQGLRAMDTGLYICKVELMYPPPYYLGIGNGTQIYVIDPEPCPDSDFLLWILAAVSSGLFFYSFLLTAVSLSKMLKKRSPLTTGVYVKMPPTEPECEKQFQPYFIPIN
# T1 sequence (P15692 other isoform, or with tags, fused parts or gaps limits assumed): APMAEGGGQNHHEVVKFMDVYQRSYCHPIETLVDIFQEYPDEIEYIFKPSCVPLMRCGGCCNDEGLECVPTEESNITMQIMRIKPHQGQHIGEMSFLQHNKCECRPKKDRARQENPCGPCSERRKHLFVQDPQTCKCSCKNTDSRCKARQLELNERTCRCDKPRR
# T5 sequence (P15692 other isoform, or with tags, fused parts or gaps limits assumed): as above
# T2 sequence (P16410 36-161 limits assumed): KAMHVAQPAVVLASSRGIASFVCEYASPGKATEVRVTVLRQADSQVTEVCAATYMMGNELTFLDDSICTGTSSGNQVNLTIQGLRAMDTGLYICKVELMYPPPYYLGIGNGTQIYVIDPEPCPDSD
# T4 sequence (Q15116 25-288): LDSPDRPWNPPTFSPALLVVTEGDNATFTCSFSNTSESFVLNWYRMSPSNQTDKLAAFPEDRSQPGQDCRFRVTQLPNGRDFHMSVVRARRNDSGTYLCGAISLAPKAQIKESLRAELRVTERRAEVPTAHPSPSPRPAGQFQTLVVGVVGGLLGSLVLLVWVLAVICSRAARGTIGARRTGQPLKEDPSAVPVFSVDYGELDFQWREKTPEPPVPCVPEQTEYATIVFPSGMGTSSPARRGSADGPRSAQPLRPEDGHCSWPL
binder,measurement,setting,value
"HC010-F10 (trispecific antibody, human IgG4 S228P, kappa, light: CQ1-3/1-11 VL-kappa; also called H010-F10) heavy: not shown light: DIQMTQSPSSLSASVGDRVTITCRASESVDNYGISFMNWYQQKPGKAPKLLIYAASNQGSGVPSRFSGSGSGTDFTLTISSLQPEDFATYYCQQSKEVPWTFGGGTKVEIKRTVAAPSVFIFPPSDEQLKSGTASVVCLLNNFYPREAKVQWKVDNALQSGNSQESVTEQDSKDSTYSLSSTLTLSKADYEKHKVYACEVTHQGLSSPVTKSFNRGEC",EC50,[1],2.83 nM
same,EC50,[2],3.32 nM
same,EC50,[3],4.86 nM
same,EC50,[4],2.37 nM
same,IC50,[5],6.76 nM
same,IC50,[6],22.6 nM
